PMC7920261 (Science (New York, N.y.), 2020)

Experiments:
[1] = biological target: T1, SARS-CoV-2 spike receptor-binding domain (RBD) (SARS-CoV-2, UniProt P0DTC2); assay: BLI; conditions: both partners purified
[2] = biological target: T1, SARS-CoV-2 spike receptor-binding …; assay: ELISA; conditions: both partners purified

B1: CTC-445.2t (designed binder)
chain: SAEIDLGKGDFREIRASEDAREAAEALAEAARAMKEALEIIREIAEKLRDSSRASEAAKRIAKAIRKAADAIAEAAKIAARAAKDGDAARNAENAARKAKEFAEEQAKLADMYAELAKNGDKSSVLEQLKTFADKAFHEMEDRFYQAALAVFEAAEAAAGGGGSGGSGSGGSGGGSSAEIDLGKGDFREIRASEDAREAAEALAEAARAMKEALEIIREIAEKLRDSSRASEAAKRIAKAIRKAADAIAEAAKIAARAAKDGDAARNAENAARKAKEFAEEQAKLADMYAELAKNGDKSSVLEQLKTFADKAFHEMEDRFYQAALAVFEAAEAAAGGGGSGGSGSGGSGGGSSAEIDLGKGDFREIRASEDAREAAEALAEAARAMKEALEIIREIAEKLRDSSRASEAAKRIAKAIRKAADAIAEAAKIAARAAKDGDAARNAENAARKAKEFAEEQAKLADMYAELAKNGDKSSVLEQLKTFADKAFHEMEDRFYQAALAVFEAAEAAAG
B1 was tested, and the Kd [1] was roughly 0.27 nM and the IC50 [2] was roughly 0.01 nM.
